# Assay results: the RNAGym collection of RNA variant scans (doi:10.1093/molbev/msab373)
# B1: Azoarcus group I ribozyme (parent)
# chain: GUGCCUUGCGCCGGGAAACCACGCAAGGGAUGGUGUCAAAUUCGGCGAAACCUAAGCGCCCGCCCGGGCGUAUGGCAACGCCGAGCCAAGCUUCGGCGCCUGCGCCGAUGAAGGUGUAGAGACUAGACGGCACCCACCUAAGGCAAACGCUAUGGUGAAGGCAUAGUCCAGGGAGUGGCGAAAGUCACACAAACCGG
# Variants of: B1
# Test: reverse-splicing fitness (ratio to wild type); higher = more active; in vitro selection; Mg2+ level not given
# Method in brief: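 An in vitro group I ribozyme library with randomized positions was T7-transcribed and gel-purified. In triplicate, 10 pmol RNA in EPPS pH 7.5 was reacted with 50 pmoles of a 30-nt RNA substrate for 1 h at 37 °C across several added MgCl2 levels (1–48 mM), then stopped with EDTA. Products were reverse transcribed from a substrate-complementary primer, PCR-amplified and sequenced (HiSeq 4000). Fitness is a variant's read proportion after selection over that before, normalised to wild type.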
row,Variant,reverse-splicing fitness
1,C82A A120U A145C C150G C169U U176C,0.00254
2,C82A A120U A145C C150G C169U U176G,0.00175
3,C82A A120U A145C C150G C169U U176A,0.00283
4,C82A A120G C150U U176A,0.0125
5,C82A A120G C150U U176C,0.015
6,C82A A120G C150U U176G,0.00727
7,C82A A120G C169G U176G,0.00368
8,C82A A120G C169G U176A,0.0203
9,C82A A120G C169G U176C,0.0274
10,C82A A120G A145U C150A C169U U176G,0.00431
11,C82A A120G A145U C150A C169U U176A,0.0207
12,C82A A120G A145U C150A C169U U176C,0.0164
13,C82A A120G C150A U176C,0.0171
14,C82A A120G C150A U176G,0.00837
15,C82A A120G C150A U176A,0.0118
16,C82A A120U A145G C150A C169A U176C,0.00397
17,C82A A120U A145G C150A C169A U176A,0.0062
18,C82A A120U A145G C150A C169A U176G,0.00236
19,C82A A120U A145G C150U U176A,0.0246
20,C82A A120U A145G C150U U176G,0.00635
21,C82A A120U A145G C150U U176C,0.0478
22,C82A A120U A145U C150U C169U U176A,0.00274
23,C82A A120U A145U C150U C169U U176C,0.00354
24,C82A A120U A145U C150U C169U U176G,0.00221

row,Variant,reverse-splicing fitness
1,C82A A120G A145U C150A C169A,0.00876
2,C82A A120G A145U C150A C169U,0.0066
3,C82A A120G A145U C150A C169G,0.00799
4,C82A A120U A145C C169A,0.00194
5,C82A A120U A145C C169U,0.00406
6,C82A A120U A145C C169G,0.0041
7,C82A A120G A145U C150G C169U U176G,0.00511
8,C82A A120G A145U C150G C169U U176C,0.0127
9,C82A A120G A145U C150G C169U U176A,0.0124
10,C82A A120U C150A C169A,0.0042
11,C82A A120U C150A C169U,0.00372
12,C82A A120U C150A C169G,0.00417
13,C82A A120U A145C C150G C169G,0.0026
14,C82A A120U A145C C150G C169A,0.00259
15,C82A A120U A145C C150G C169U,0.00298
16,C82A A120U A145C C150G U176G,0.00275
17,C82A A120U A145C C150G U176A,0.00523
18,C82A A120U A145C C150G U176C,0.00832
19,C82A A120G A145U C150G C169G U176A,0.0066
20,C82A A120G A145U C150G C169G U176C,0.00552
21,C82A A120G A145U C150G C169G U176G,0.00378
22,C82A A120U A145G C150U C169U U176A,0.00414
23,C82A A120U A145G C150U C169U U176G,0.00226
24,C82A A120U A145G C150U C169U U176C,0.00493

row,Variant,reverse-splicing fitness
1,C82A A120U A145G C150U C169G,0.00684
2,C82A A120U A145G C150U C169A,0.00691
3,C82A A120U A145G C150U C169U,0.00646
4,C82A A120G C150A C169U U176A,0.0218
5,C82A A120G C150A C169U U176C,0.0215
6,C82A A120G C150A C169U U176G,0.00815
7,C82A A120G C150G C169G U176G,0.00432
8,C82A A120G C150G C169G U176A,0.00669
9,C82A A120G C150G C169G U176C,0.00462
10,C82A A120U A145U C169G U176G,0.00116
11,C82A A120U A145U C169G U176C,0.00254
12,C82A A120U A145U C169G U176A,0.00173
13,C82A A120U A145C C169A U176C,0.0019
14,C82A A120U A145C C169A U176G,0.00126
15,C82A A120U A145C C169A U176A,0.00193
16,C82A A120U A145G C150G C169G,0.00686
17,C82A A120U A145G C150G C169U,0.00784
18,C82A A120U A145G C150G C169A,0.0097
19,C82A A120U A145U C169A,0.00202
20,C82A A120U A145U C169G,0.00509
21,C82A A120U A145U C169U,0.0055
22,C82A A120G C150G U176A,0.00568
23,C82A A120G C150G U176G,0.00336
24,C82A A120G C150G U176C,0.00829

row,Variant,reverse-splicing fitness
1,C82A A120G C150U C169A,0.0136
2,C82A A120G C150U C169U,0.0111
3,C82A A120G C150U C169G,0.0157
4,C82A A120G A145U C150U C169G U176A,0.0114
5,C82A A120G A145U C150U C169G U176G,0.00454
6,C82A A120G A145U C150U C169G U176C,0.0154
7,C82A A120U A145U C150G C169G U176C,0.00221
8,C82A A120U A145U C150G C169G U176G,0.00188
9,C82A A120U A145U C150G C169G U176A,0.00253
10,C82A A120U A145C C169U U176G,0.00109
11,C82A A120U A145C C169U U176C,0.00274
12,C82A A120U A145C C169U U176A,0.00271
13,C82A A120U A145C C150A C169G U176G,0.00139
14,C82A A120U A145C C150A C169G U176C,0.00352
15,C82A A120U A145C C150A C169G U176A,0.00253
16,C82A A120G C150U,0.0158
17,C82A A120G C150A,0.0107
18,C82A A120G C150G,0.00747
19,C82A A120U A145U U176C,0.0582
20,C82A A120U A145U U176G,0.01
21,C82A A120U A145U U176A,0.036
22,C82A A120U A145C C150U C169U U176C,0.00257
23,C82A A120U A145C C150U C169U U176G,0.00212
24,C82A A120U A145C C150U C169U U176A,0.00245

row,Variant,reverse-splicing fitness
1,C82A A120U A145U C150G U176A,0.00533
2,C82A A120U A145U C150G U176C,0.00823
3,C82A A120U A145U C150G U176G,0.00318
4,C82A A120U A145U C150A C169G U176A,0.00237
5,C82A A120U A145U C150A C169G U176C,0.00266
6,C82A A120U A145U C150A C169G U176G,0.00136
7,C82A A120G C150G C169A U176C,0.0109
8,C82A A120G C150G C169A U176G,0.00619
9,C82A A120G C150G C169A U176A,0.0116
10,C82A A120G C150A C169U,0.0102
11,C82A A120G C150A C169G,0.0102
12,C82A A120G C150A C169A,0.011
13,C82A A120U A145C C150U U176C,0.0147
14,C82A A120U A145C C150U U176A,0.00945
15,C82A A120U A145C C150U U176G,0.00464
16,C82A A120U A145U C150G,0.0166
17,C82A A120U A145U C150U,0.0889
18,C82A A120U A145U C150A,0.0126
19,C82A A120G C150A C169G U176A,0.0195
20,C82A A120G C150A C169G U176C,0.0267
21,C82A A120G C150A C169G U176G,0.00524
22,C82A A120U C150A C169A U176C,0.00234
23,C82A A120U C150A C169A U176G,0.0024
24,C82A A120U C150A C169A U176A,0.00388

row,Variant,reverse-splicing fitness
1,C82A A120U A145C C169G U176G,0.00139
2,C82A A120U A145C C169G U176C,0.00235
3,C82A A120U A145C C169G U176A,0.00227
4,C82A A120U A145C C150U C169G U176C,0.00201
5,C82A A120U A145C C150U C169G U176A,0.00237
6,C82A A120U A145C C150U C169G U176G,0.00196
7,C82A A120G C169G,0.0233
8,C82A A120G C169U,0.0166
9,C82A A120G C169A,0.0152
10,C82A A120U A145U C150U U176G,0.0066
11,C82A A120U A145U C150U U176A,0.0232
12,C82A A120U A145U C150U U176C,0.0364
13,C82A A120U A145U C150G C169A U176C,0.00214
14,C82A A120U A145U C150G C169A U176A,0.00324
15,C82A A120U A145U C150G C169A U176G,0.00201
16,C82A A120G C150G C169U U176A,0.0119
17,C82A A120G C150G C169U U176G,0.00654
18,C82A A120G C150G C169U U176C,0.0133
19,C82A A120U A145G C150A C169U U176C,0.00385
20,C82A A120U A145G C150A C169U U176G,0.003
21,C82A A120U A145G C150A C169U U176A,0.0044
22,C82A A120U C150A C169U U176A,0.00391
23,C82A A120U C150A C169U U176G,0.00215
24,C82A A120U C150A C169U U176C,0.00414

row,Variant,reverse-splicing fitness
1,C82A A120G A145U C150G U176G,0.00365
2,C82A A120G A145U C150G U176A,0.00629
3,C82A A120G A145U C150G U176C,0.00721
4,C82A A120G C150U C169U U176A,0.0231
5,C82A A120G C150U C169U U176G,0.0068
6,C82A A120G C150U C169U U176C,0.0192
7,C82A A120G C169A U176G,0.00374
8,C82A A120G C169A U176C,0.0236
9,C82A A120G C169A U176A,0.0187
10,C82A A120U A145G C150G C169U U176A,0.00865
11,C82A A120U A145G C150G C169U U176G,0.00419
12,C82A A120U A145G C150G C169U U176C,0.00657
13,C82A A120G C150U C169A U176G,0.00471
14,C82A A120G C150U C169A U176A,0.0169
15,C82A A120G C150U C169A U176C,0.0163
16,C82A A120G C150G C169A,0.00866
17,C82A A120G C150G C169G,0.00786
18,C82A A120G C150G C169U,0.0095
19,C82A A120U A145C C150U,0.0294
20,C82A A120U A145C C150A,0.00898
21,C82A A120U A145C C150G,0.0172
22,C82A A120U A145C C150U C169A U176C,0.00251
23,C82A A120U A145C C150U C169A U176A,0.00195
